Assay results: PMC3634489

Key:
[1] = molecular target: 2A1 IgA of the combination HCα1-LCλ-JC (heavy chain α1 without KDEL, λ light chain, co-expressed J chain) (human) (UniProt P01591); assay: ELISA
[2] = molecular target: 2A1 IgA of the combination HCα1-LCλ-JC (heavy chain α1 without KDEL, λ light chain, co-expressed J chain) (human) (UniProt P01591); assay: ELISA; […]) capture antibody, […]
[3] = molecular target: 2A1 IgA of the combination HCα1-LCλ-JC (heavy chain α1 without KDEL, λ light chain, co-expressed J chain) (human) (UniProt P01591); assay: SEC

UniProt P01591, sequence (P01591 whole entry, looked up): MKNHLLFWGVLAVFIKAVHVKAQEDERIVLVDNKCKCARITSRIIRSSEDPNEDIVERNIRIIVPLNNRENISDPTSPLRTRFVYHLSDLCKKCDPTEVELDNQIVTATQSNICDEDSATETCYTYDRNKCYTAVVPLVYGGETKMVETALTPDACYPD

- percent of total HC in the sIgA complex [1]: 21%
- percent of total HC in the sIgA complex [2]: > 33%
- percent of total IgA content as sIgA [3]: 20%
Substance: secretory component with a C-terminal KDEL signal (SCkdel) (from UniProt P01833 19-638) (domain or fragment)
